According to PMC9820295:

What was measured:
[1] = test system: DgDps1 (Dgeo_0281) (Deinococcus geothermalis); test: EMSA; details: EMSA 1x (from 5x stock): 20 mM HEPES pH 7.2, 32 mM KCl, 0.1 mM EDTA, 10% glycerol, 70 ng/uL BSA, 8 ng/uL poly(dI-dC), 2.5 mM DTT; 37 C 30 min; 6% native PAGE …
[2] = test system: Dgeo_0257 (putative Dps, DgDps3) (Deinococcus geothermalis); test: EMSA; details: no added metal; half-maximal shift, fragment not specified; EMSA 1x (from 5x stock): 20 mM HEPES pH 7.2, 32 mM KCl, 0.1 mM EDTA, 10% glycerol, 70 ng/uL BSA, 8 ng/uL poly(dI-dC), 2.5 mM DTT; 37 C 30 min; 6% native PAGE …
[3] = target: DgDps1 (Dgeo_0281) (Deinococcus geothermalis) (UniProt Q1J1Q0); test: SEC; HiLoad 16/600 Superdex 75 prep grade; 25 mM Tris-HCl pH 7.5, 150 mM NaCl; size markers ferritin 440 kDa, conalbumin 75 kDa, ovalbumin 43 kDa, anhydrase 29 kDa; also run with 1 mM Fe2+ or Fe3+

With Dgeo_2112 promoter region the Kd [1] was over 40 µM and the Kd [2] was under 4 µM.
For Dgeo_2112 ORF region, the Kd [1] was over 40 µM and the Kd [2] was under 4 µM.
“DgDps1 (Dgeo_0281) (from UniProt Q1J1Q0 1-222) (natural protein)” gave a stoichiometry N [3] of 2.
